Data: article PMC3043092

Tests used:
[1] = biological target: Pisum sativum thioredoxin f (Pisum sativum); experiment: SEC; Superdex 75 HR 16/60, 1 ml/min, 25°C; 100 µl at 24 µM loaded; 50 mM buffer with 150 mM NaCl, pH >= 7.0; no reducing agent
[2] = biological target: Pisum sativum thioredoxin h1 (Pisum sativum); experiment: as above

Row | stoichiometry N [1] | stoichiometry N [2] | Substance
1 | 2 |  | Pisum sativum thioredoxin f (natural protein)
2 |  | 2 | Pisum sativum thioredoxin h1 (natural protein)
